Data taken from patent US20260242478A1 (published 2026).
Where no end group is shown, it is not given here.

Key:
[1] = biological target: T1, Anti-CD28 scFv (VH - linker 1 - VL) (biotinylated (site not stated)); test: phage ELISA; biotinylated anti-CD28 scFv on neutravidin plate, wells pre-incubated with soluble CD28 (competitor), anti-M13-HRP detection;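 further: bound clonal phage detected by peroxidase-labelled anti-M13 antibody, compared against wells given blocking buffer alone without soluble CD28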
T1 construct: Biotinylated scFv captured on neutravidin coated plates in the panning ELISA
T1 sequence (scFv, as listed by the source): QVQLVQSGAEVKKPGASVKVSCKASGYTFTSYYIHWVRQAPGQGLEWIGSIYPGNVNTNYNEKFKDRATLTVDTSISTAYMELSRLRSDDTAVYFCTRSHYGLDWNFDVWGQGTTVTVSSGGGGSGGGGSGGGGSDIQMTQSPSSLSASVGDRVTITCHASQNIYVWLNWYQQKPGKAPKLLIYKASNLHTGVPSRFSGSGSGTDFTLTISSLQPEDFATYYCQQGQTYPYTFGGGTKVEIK

[2] = biological target: T1, Anti-CD28 scFv (VH - linker 1 - VL); test: phage ELISA; biotinylated anti-CD28 scFv on neutravidin plate, clonal phage supernatant, anti-M13-HRP detection;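 further: before phage addition, wells were pretreated with soluble CD28 protein in blocking buffer, or with blocking buffer only as the comparison, then phage were added without washing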
[3] = biological target: T2, Anti-CD28 scFv (VH - linker 1 - VL) (biotinylated (site not stated)); test: phage ELISA as above, wells pre-incubated with soluble CD28 (competitor);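 further: ELISA of crude clonal phage supernatants added to wells pre-treated with soluble CD28 in blocking buffer, bound phage read out with HRP-conjugated anti-M13 antibody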
T2 construct: Biotinylated scFv captured on neutravidin coated plates in the panning ELISA
T2 sequence (scFv, as listed by the source): as above

[4] = biological target: T2, Anti-CD28 scFv (VH - linker 1 - VL); test: phage ELISA; biotinylated anti-CD28 scFv on neutravidin plate, clonal phage supernatant, anti-M13-HRP;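 further: before the phage were added, wells were pre-incubated with soluble CD28 protein in blocking buffer, or with blocking buffer alone, and were not washed in between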
Experimental: (§1) Clonal phage were harvested as crude supernatants and screened via standard enzyme linked immunosorbent assays (ELISAs). […] Prior to the addition of clonal phage, wells were incubated with blocking buffer and CD28 soluble protein or blocking buffer alone. Without washing or aspirating, clonal phage supernatants were then added to the wells and incubated for a short time. Wells were then washed followed by detection of bound phage using a horse radish peroxidase conjugated anti-M13 antibody.

[5] = biological target: T3, Anti-CD28 scFv (VH - linker 1 - VL) (biotinylated (site not stated)); test: phage ELISA: biotinylated anti-CD28 scFv on neutravidin plate, clonal phage supernatant, anti-M13-HRP detection;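 further: competition format: before phage supernatant was added, wells were preincubated with soluble CD28 protein or with blocking buffer only, and phage were added without an intervening wash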
T3 construct: Captured as biotinylated scFv on neutravidin plates in the panning ELISA
T3 sequence (scFv, as listed by the source): as above

[6] = biological target: T3, Anti-CD28 scFv (VH - linker 1 - VL); test: phage ELISA as above, wells pre-incubated with soluble CD28 (competitor);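 further: ELISA of crude clonal phage supernatants added to wells pre-treated with soluble CD28 in blocking buffer, bound phage read out with HRP-conjugated anti-M13 antibody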
Experimental: as §1

Binder: MDWCPMFLWHECFN (tested as crude phage supernatant) [Phage-309]
- CD28 scFv signal in presence of CD28 [1]: 0.591
- CD28 scFv signal [2]: 2.38

Binder: MDWCPRILWSDCFN [Phage-373]
- CD28 scFv signal in presence of CD28 [3]: 0.113
- CD28 scFv signal [4]: 0.847

Binder: MNWCPIDMWTECFN [Phage-406]
- CD28 scFv signal [5]: 1.4
- CD28 scFv signal in presence of CD28 [6]: 0.175

Binder: MDWCPRDLWFACFA (tested as crude phage supernatant) [Phage-282]
- CD28 scFv signal in presence of CD28 [1]: 0.794
- CD28 scFv signal [2]: 2.66

Binder: ITWCPTSLWNRCLV [Phage-382]
- CD28 scFv signal in presence of CD28 [3]: 0.089
- CD28 scFv signal [4]: 0.242

Binder: MDWCPRHLWNECFN (tested as crude phage supernatant) [Phage-283]
- CD28 scFv signal in presence of CD28 [1]: 0.393
- CD28 scFv signal [2]: 2.65

Binder: MDWCPRHLWFECFF (tested as crude phage supernatant) [Phage-300]
- CD28 scFv signal in presence of CD28 [1]: 0.479
- CD28 scFv signal [2]: 2.45

Binder: MDWCPRHLWNECFA (tested as crude phage supernatant) [Phage-306]
- CD28 scFv signal in presence of CD28 [1]: 0.17
- CD28 scFv signal [2]: 2.39

Binder: MDWCPRHLWFECFN (tested as crude phage supernatant) [Phage-293]
- CD28 scFv signal in presence of CD28 [1]: 0.171
- CD28 scFv signal [2]: 2.49

Binder: MDYCPSYLWHECFA [Phage-380]
- CD28 scFv signal in presence of CD28 [3]: 0.09
- CD28 scFv signal [4]: 0.47

Binder: MDWCPKSLWAECFN (tested as crude phage supernatant) [Phage-308]
- CD28 scFv signal in presence of CD28 [1]: 0.162
- CD28 scFv signal [2]: 2.38

Binder: MDWCPSYLWPVCFN [Phage-365]
- CD28 scFv signal in presence of CD28 [3]: 0.131
- CD28 scFv signal [4]: 1.18

Binder: MHWCPLYLWDECFY [Phage-366]
- CD28 scFv signal in presence of CD28 [3]: 0.376
- CD28 scFv signal [4]: 1.16

Binder: MDWCPRSLWAQCFY [Phage-364]
- CD28 scFv signal in presence of CD28 [3]: 0.14
- CD28 scFv signal [4]: 1.39

Binder: MAWCPRILWHQCFN [Phage-381]
- CD28 scFv signal in presence of CD28 [3]: 0.129
- CD28 scFv signal [4]: 0.322

Binder: MDWCPRYLWVDCFA [Phage-372]
- CD28 scFv signal in presence of CD28 [3]: 0.218
- CD28 scFv signal [4]: 0.917

Binder: MHWCPRDLWYECFA [Phage-369]
- CD28 scFv signal in presence of CD28 [3]: 0.108
- CD28 scFv signal [4]: 0.995

Binder: MDWCPRSLWFLCFN (tested as crude phage supernatant) [Phage-281]
- CD28 scFv signal in presence of CD28 [1]: 1.77
- CD28 scFv signal [2]: 2.71

Binder: LAGCQRDLATVCVI [Phage-383]
- CD28 scFv signal in presence of CD28 [3]: 0.116
- CD28 scFv signal [4]: 0.229

Binder: LYWCPRDMWAYCYS [Phage-414]
- CD28 scFv signal [5]: 1.02
- CD28 scFv signal in presence of CD28 [6]: 0.157

Binder: MDWCPRYLWPVCFH (tested as crude phage supernatant) [Phage-307]
- CD28 scFv signal in presence of CD28 [1]: 0.602
- CD28 scFv signal [2]: 2.39

Binder: MSWCPRFMWHECFN [Phage-411]
- CD28 scFv signal [5]: 1.11
- CD28 scFv signal in presence of CD28 [6]: 0.246

Binder: MDWCPRYLWTECFS (tested as crude phage supernatant) [Phage-303]
- CD28 scFv signal in presence of CD28 [1]: 0.329
- CD28 scFv signal [2]: 2.42

Binder: MDWCPRDLWTECFS (tested as crude phage supernatant) [Phage-305]
- CD28 scFv signal in presence of CD28 [1]: 0.174
- CD28 scFv signal [2]: 2.4

Binder: MDWCPRDLWAMCFA (cysteine pairing not given here; also: displayed on phage as fusion to pIII, tested as crude phage supernatant) [Phage-285]
- CD28 scFv signal in presence of CD28 [1]: 0.889
- CD28 scFv signal [2]: 2.63

Binder: MSWCPPYLWTVCYN [Phage-368]
- CD28 scFv signal in presence of CD28 [3]: 0.326
- CD28 scFv signal [4]: 1.1

Binder: MDWCPRNLWAECFS [Phage-379]
- CD28 scFv signal in presence of CD28 [3]: 0.08
- CD28 scFv signal [4]: 0.538

Binder: MNWCPRALWHECFL [Phage-375]
- CD28 scFv signal in presence of CD28 [3]: 0.107
- CD28 scFv signal [4]: 0.759

Binder: MDWCPKFLWDECFA (tested as crude phage supernatant) [Phage-304]
- CD28 scFv signal in presence of CD28 [1]: 0.376
- CD28 scFv signal [2]: 2.41

Binder: MDWCPRHLWTYCFH [Phage-376]
- CD28 scFv signal in presence of CD28 [3]: 0.207
- CD28 scFv signal [4]: 0.757

Binder: MDWCPFDLWLECFN [Phage-377]
- CD28 scFv signal in presence of CD28 [3]: 0.12
- CD28 scFv signal [4]: 0.65

Binder: MDWCPSFLWYECFN [Phage-367]
- CD28 scFv signal in presence of CD28 [3]: 0.104
- CD28 scFv signal [4]: 1.13

Binder: MDWCPIALWDFCFA (tested as crude phage supernatant) [Phage-288]
- CD28 scFv signal in presence of CD28 [1]: 0.492
- CD28 scFv signal [2]: 2.52

Binder: MTWCPAYLWHECFN [Phage-370]
- CD28 scFv signal in presence of CD28 [3]: 0.139
- CD28 scFv signal [4]: 0.985

Binder: MNWCPIHMWNQCFA [Phage-407]
- CD28 scFv signal [5]: 1.37
- CD28 scFv signal in presence of CD28 [6]: 0.133

Binder: MDWCPMYMWHKCFH [Phage-415]
- CD28 scFv signal [5]: 0.987
- CD28 scFv signal in presence of CD28 [6]: 0.168

Binder: MDWCPRDLWSVCFS (tested as crude phage supernatant) [Phage-290]
- CD28 scFv signal in presence of CD28 [1]: 0.116
- CD28 scFv signal [2]: 2.5

Binder: MHWCPLHLWNECFA [Phage-378]
- CD28 scFv signal in presence of CD28 [3]: 0.083
- CD28 scFv signal [4]: 0.575

Binder: MDWCPIYLWAECFN (tested as crude phage supernatant) [Phage-299]
- CD28 scFv signal in presence of CD28 [1]: 0.307
- CD28 scFv signal [2]: 2.45

Binder: MFWCPKDMWAECFA [Phage-408]
- CD28 scFv signal [5]: 1.26
- CD28 scFv signal in presence of CD28 [6]: 0.113

Binder: MAWCPLDLWDKCFY [Phage-374]
- CD28 scFv signal in presence of CD28 [3]: 0.141
- CD28 scFv signal [4]: 0.77

Binder: MDWCPRYLWHECFF (tested as crude phage supernatant) [Phage-301]
- CD28 scFv signal in presence of CD28 [1]: 0.682
- CD28 scFv signal [2]: 2.45

Binder: MDWCPRALWDHCFF (tested as crude phage supernatant) [Phage-292]
- CD28 scFv signal in presence of CD28 [1]: 0.394
- CD28 scFv signal [2]: 2.49

Binder: MERCPRYLWHMCYS (tested as crude phage supernatant) [Phage-286]
- CD28 scFv signal in presence of CD28 [1]: 0.84
- CD28 scFv signal [2]: 2.59

Binder: QHWCPRDMWNDCYA [Phage-412]
- CD28 scFv signal [5]: 1.08
- CD28 scFv signal in presence of CD28 [6]: 0.149

Binder: MDWCPSDMWSNCFN [Phage-413]
- CD28 scFv signal [5]: 1.07
- CD28 scFv signal in presence of CD28 [6]: 0.121

Binder: LHWCPITMWTYCYY [Phage-409]
- CD28 scFv signal [5]: 1.21
- CD28 scFv signal in presence of CD28 [6]: 0.516

Binder: MDWCPRYLWHVCFY (tested as crude phage supernatant) [Phage-291]
- CD28 scFv signal in presence of CD28 [1]: 1.14
- CD28 scFv signal [2]: 2.5

Binder: MDWCPRYLWHVCFD (tested as crude phage supernatant) [Phage-302]
- CD28 scFv signal in presence of CD28 [1]: 0.31
- CD28 scFv signal [2]: 2.44

Binder: IDWCPRYMWHECFF [Phage-410]
- CD28 scFv signal [5]: 1.18
- CD28 scFv signal in presence of CD28 [6]: 0.164

Binder: MDWCPRYLWDYCFA (tested as crude phage supernatant) [Phage-280]
- CD28 scFv signal in presence of CD28 [1]: 0.382
- CD28 scFv signal [2]: 2.71

Binder: MDWCPRSLWDYCFA (tested as crude phage supernatant) [Phage-294]
- CD28 scFv signal in presence of CD28 [1]: 0.235
- CD28 scFv signal [2]: 2.49
